Reference: the DeepSol protein solubility set

Assay: soluble on expression in E. coli; label from the status in PepcDB or PDB records

Soluble on expression in E. coli, not soluble:
MGSDKIHHHHHHMGYAYLRGLRNARLQNNNDETSTVFRSCSVPTFQKMRSAYGRRVVKDVFAPNGGVFINRLVEYVTGQGHDFENMLAQKLAISEPLSSSAQVLPVYEHSLVFGLAERVCNDTSIGYALAYQCTLRDAGLVGYAVSASETAGEALYTLSRLSNVFEVVSASASGGLVDLRWDFGSQGKLDLRHWSEFIATLLVRSLKTLCTGAVAPVGVEFTHTAPSSSEQAVLAFGVKPTYRGRLNRLTFREQDLRQPLRSADAGLLRLLLEHAELLRRRPDRNSNDLSITVERLIMDGMSEGDASLAQVAESLDMSQRTLSRKLASEGTSFFAILEGVRKSLALRYLQQNEKSLSEISFALGYSSLSSFNDAFRRWYDQSPGSYRSDALKEAAVKS, MGSDKIHHHHHHMGYKNILIDFDDTIVDFYDAEEWAFHYMANVFNHKATKDDFLTFKKINHQHWEAFQQNKLTKSEVLSERFVNYFKHHQMEVDGHRADVLFRNGLAEAKVKYFDQTLETIVELSKRHDLYIVTNGVTETQKRRLNQTPLHKYIKKIFISEETGYQKPNPEFFNYVFNDIGEDERQHSIIVGDSLTSDILGGINAGIATCWFNFRGFDHNPGIIPDYEINSWKQLNDIVR, MGSDKIHHHHHHMHIAIASGKGGTGKTTLAVNLAVHAARSGHPTVLADCDVEEPNAHLFMPGEPVMTLTHSLPVPAVDKAKCLGDSCRKCVEECRFKALTWMKGVMAFSELCHGCGLCMMICPSGAITETTRPVGTVEIRTPQLPVPAGASAGAAALTLVSGRMRISEAMAPPLIREVKQQAHAVSAGTPNGLTFWDSPPGTSCPMISTVENADYSVLVTEPTPFGLHDLRLAVETLHTLGRPFGVVINRDGMGDGRVREYLDRHRIPLLGTVPHSPQAAQAVSSGRLLIDAVDGMTGCFDRLLHTVLRHAHNAAQHGQEKTA, MGSDKIHHHHHHMHLFKRAEMLNVIDTLATNYLKGKVRAVRLSVIALLSGGHILLEDIPGLGKTTLALALARALGLSFGRVQCTSDLLPSDITGLSILNRDENRFTFMPGPIFNNVVLMDEINRAMPKTQSALLEAMEERRVTVEGTTHPLPEPFLVIATQNPVEQVGTYPLPESQLDRFMVRSGIGYPPEAIEKAIIKGGSIRDGIRHLEPLVTVNDIIEAQRTVRESIYLSDKVVDYIHAIVAATRSHRAVTSGVSTRGAISMAETAKAHAYLEGRDYVIPEDVKAIAAPVGAHRLILGFDNENLDKGELLHAILATIPVPLA, MGSDKIHHHHHHMHLGVVVPRVDDHSTIELAVEAEGHGYDSVWLNELWGASSVVELTDIATRTDDIEIGSAILNVFSRSPAVLAMTATTLDRVSDGRAVLGLGTSTARSIENMHSMEFERPVRRAHETIDIIKQLMTGDERVTYDGEAVSVRGVPPLDRDVPVYHAALGPANRRVVARLADGWLPHMIAFSELESAFDYIAETARDADRDPDDITVAPYVPAVVHEDSERATEELRQHIAYYVGSGEGYRRAVAETYPDRAERIADAWQAGDRGEATELVTDEMTADLGIAGTPEQAREKRDKIADRAVIDRLLLTVPQQVDGELARKTIRALGPN, MGSDKIHHHHHHMHLTQSTISQQLARLEESVGHSLIDRTARPLQLTASGEYLIGYAQRILTLQQEAEAVLKDPAGSIPIRIGLPEDMMSTAMAEVFGLFAQEHRTIRLDVTSGLSRNLTERYRNGELDIVIVKESAASADCYASFPEEMAWFESENAITPLSEPIRLVTFPQGGLYRDEMFETLERERRRWYIAFTGSSLESVLVSVETGLGISLLPVSTTKGRRVRRYKSLGEASPMVVSIYTWEKAGLISQLVDHMTTVLHDRFQSGS, MGSDKIHHHHHHMHSLQRKVLRTICPDQKGLIARITNICYKHELNIVQNNEFVDHRTGRFFMRTELEGIFNDSTLLADLDSALPEGSVRELNPAGRRRIVILVTKEAHCLGDLLMKANYGGLDVEIAAVIGNHDTLRSLVERFDIPFELVSHEGLTRNEHDQKMADAIDAYQPDYVVLAKYMRVLTPEFVARFPNKIINIHHSFLPAFIGARPYHQAYERGVKIIGATAHYVNDNLDEGPIIMQDVIHVDHTYTAEDMMRAGRDVEKNVLSRALYKVLAQRVFVYGNRTIIL, MGSDKIHHHHHHMHTGPTVFKQLLQFLPRYEFNLCVRRHRGEYREKKFSTYDQFLCLAYAQMAGRESLRDIETCLNSHQEKLYHIGFRGDVSRTTLADANERRDWRIFQDFGHVLIGIAQQLYQADAISVELTQPLYAFDSTTIDLCLTLFPWAEFRKTKAAVKMHTLIDLRGPIPTWVTITTGKVHDVRMLDHLPVAKDAIYTMDRGYVDFARLHSIHKQGAFFVVRAKDNLKCQRLYSHPKDKESGVRADQIITLVTQKSKKGYPEKLRRVSYVDKERNKRLVFLTNNFEIPAATVAAIYKQRWQVELFFKWIKQHLRIKSFIGTSVNAVKSQIWVALCIYLLVAITKKKLGVPCSLYTFLQILEVNLFEKKPISSLVAEALKRNADYPERNQLNLFNY, MGSDKIHHHHHHMIDARVKFRHLQTFVEVARQKSVVKAAELLHVTQPAVTKTIRELEEVLGVAVFEREGRGIKITRYGEVFLRHAGAALTALRQGLDSVSQERSGEGPPIRVGALPTVSTRIMPRAIALFLKEKTGARIKIVTGENAVLLEQLRIGDLDLVVGRLAAPDKMTGFSFEHLYSEQVVFAVRAGHPLISGRQSLFAHLSDYPVLMPTRASIIRPFVEHFLIANGIAGLPNQIETVSDSFGRAFVRSSDAIWIISAGVVATDIADGVLAALPVDTSETRGPVGLTMRTDAIPSLPLSILMQTLREVAGTAMAAEAKRTA, MGSDKIHHHHHHMIDLQEILANMNPNQKINYDRVMQQMAKVWEKESVRPSILMHVCCAPCSTYTLEYLTQFADITVYFANSNIHPKDEYHRRAYVTQQFVSEFNAKTGNTVQFLEADYVPNEYVRQVRGLEEEPEGGDRCRVCFDYRLDKTAQKAVELGFDYFASALTISPHKNSQTINDVGIDVQKVYTTKYLPSDFKKNNGYRRSVEMCEEYDIYRQCYCGCVYAAKMQGIDLVQVKKDAKAFMADKDLDNDFTHIRFSYRGDEM, MGSDKIHHHHHHMIDPESLEALEAVVDAGSLSAAAGQLNKAVSAVGYHLRRLEEQIGVPLLDRSGYRLALTPEGKSVLAEGRPILERLRALGTFAERYHGGWEHQLRIVYDGALPAEVVIGAINALVEAGAPTHIELNVAYLGAVPFEFDRKQADVMIATAWEPRLDLIGHRLATLGFSLCCAAGHPLTMRTNVSLEELQRETELIIPGLAEDRSFDARHFRSRRILKVSDFNTKLIAIRRGLGFGWLPDYLASDLVRKGNLARVRLEGGNSYELQPVFALHRGAAPGRARQMLLDMLLLATWDTYVKPE, MGSDKIHHHHHHMIEMTRMAACAAVHHDTQATQTGAAYAPAEQGGEPRESSASAYFWVGIDAGGSHCRALLTDDSGQVLGHGVAGPANPVNGVSQSQAAIMSAIDKALGAARLDKQYHRLIVGAGLAGLHLPKMQQVMNEWAHPFAAWHTTTDLHVAALGAHQGADGGVIILGTGFSSLANVKGQQILIGGHGFPINATCSGSWFGLEAVKAVLLDADGIGPGTSLTGKLLQGTNAMALAEQLMHANATDFARFAPQVFEQAGAGDAVSLSLIEQGATFINGVIRRLLATGIDSLSLVGGIAPLMQPWLAPDLSTRIRTAKASPEEGAILFARQCHVGNSRIQER, MGSDKIHHHHHHMIFLIFSILFLHLANCDYTPDWESLDNRPLPSWYDDSKFGIFCHWGLYSDDNDKNKKYKTRSEWMWWYWKGTQPDKDVVNFVDKNYKPGTTYADFAKDVCNILLFAIESDFCSLPQSISMRINLLKLYFVFTSKHHEGFTMWPSRTSWNWNSMDIGPKRDIVGELRDAFKKTDVHFGLYFSQFEWFHPMFLDDGKFNTTFYPEQVSYPQMIDIVTKYNPEVVWSDGEWDKSDDYWKAKEFLAWLYNSSPVKDQVVVNDRWGTGTMGKHGGFMTYSDHYDPGKLLEKKWENCMTLDKHSWGNRRDMKASEVNTAYEIIEQLARTIACNGNLLLNVGPNMHGQIPAIFEDRLEEIGRFVNITSEAIFGTRPWIHQNDTSASNVWYVEFQQLSTHVFSGILPNIHRERSH
